Laboratory results taken from paper PMC12043044, “Synthesis of Selectively ^13C/^2H/^15N‐ Labeled Arginine to Probe Protein Conformation and Interaction by NMR Spectroscopy” (Chemistry (Weinheim an Der Bergstrasse, Germany), 2025).

Molecular target: T1, human ubiquitin (human, UniProt P0CG48 1-76)
T1 construct: ubiquitin, human, the 76 amino acid-long protein (cut product of the polyubiquitin or ubiquitin-ribosomal fusion precursors); Isotope-labelled only (uniformly 15N, arginines 13Cdelta/2Hbeta,gamma/15Nepsilon); No tag is mentioned and the purification uses none; also called arginine-labeled ubiquitin; source: E. coli BL21(DE3), pET-21a(+), purified (heat shock at 70 °C, anion exchange, size …)
Test: NMR titration; 70 µM arginine-labeled (U-15N, 13Cδ/2Hβγ/15Nε Arg) ubiquitin titrated with increasing amounts of unlabeled Sla1 SH3-3; 50 mM Tris-HCl, pH 8.0, 25 °C; 1H-13C HSQC and 1H-15N SOFAST-HMQC, chemical shift perturbations
Conditions: both partners purified

- binding result: binds
B1: third SH3 domain (SH3-3) of yeast endocytic protein Sla1 (domain or fragment)
chain: MASKSKKRGIVQYDFMAESQDELTIKSGDKVYILDDKKSKDWWMCQLVDSGKSGLVPAQFIEPVRDKKHTE
notes: Sla1, yeast, third SH3 domain (SH3-3); residues E367, E371 and F409 are named as lying in the domain (PDB 2JT4); PDB 2JT4 is the cited NMR model of the complex with ubiquitin and may hold other limits; Plasmid bought from GeneCust; No removal of the tag is described; also called Sla1 SH3-3; source: cell-free expression (E. coli S15 extract, pIVEX2.3d vector), purified (HisTrap FF)
